In the assay the target is T1, His6-Flag-tagged human N-WASP (human, UniProt O00401 1-505).
T1 construct: also called His-Flag-N-WASP; N-WASP of the recombinant N-WASP/WIP complex
The experiment in a line: SEC. The following applies: partners not purified.

T1 sequence (O00401 whole entry): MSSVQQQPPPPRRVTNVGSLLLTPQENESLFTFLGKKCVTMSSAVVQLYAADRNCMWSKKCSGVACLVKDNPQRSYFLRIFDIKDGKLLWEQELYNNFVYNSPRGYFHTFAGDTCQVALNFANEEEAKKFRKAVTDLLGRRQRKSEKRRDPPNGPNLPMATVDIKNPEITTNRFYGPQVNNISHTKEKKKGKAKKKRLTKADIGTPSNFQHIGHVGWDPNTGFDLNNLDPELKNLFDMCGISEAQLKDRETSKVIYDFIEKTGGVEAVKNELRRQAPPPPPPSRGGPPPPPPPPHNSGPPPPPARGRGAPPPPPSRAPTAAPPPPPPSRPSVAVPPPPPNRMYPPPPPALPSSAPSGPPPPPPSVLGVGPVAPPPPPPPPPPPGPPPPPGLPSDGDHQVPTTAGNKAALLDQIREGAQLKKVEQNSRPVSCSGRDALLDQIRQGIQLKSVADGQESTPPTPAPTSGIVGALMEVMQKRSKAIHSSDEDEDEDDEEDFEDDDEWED

B1: His6-Myc-tagged human WIP (natural protein)
chain: not shown
notes: also called His-Myc-WIP
Regarding B1, the stoichiometry N (as a rule, the number of molecules, sites or subunits per partner or assembly) was determined as 1.

Values taken from paper PMC2567903, “Repetitive N-WASP–Binding Elements of the Enterohemorrhagic Escherichia coli Effector EspFU Synergistically Activate Actin Assembly” (PLoS Pathogens, 2008).
